According to US8497083B2, “Fructosyl amino acid oxidase” (priority 2009, dated 2013):
Residue numbers refer to the chain shown, from its start. Names and notes keep the numbering of the source.

Key:
[1] = target: T1, fructosyl amino acid oxidase from Phaeosphaeria nodorum (PnFPOX, SEQ ID NO: 1) variant N56A (Parastagonospora nodorum, UniProt Q0UIL6, N56A); assay: Oxidase activity kinetics (4AA/TODB/POD), PnFPOX N56A mutant; format: biochemical; conditions: purified enzyme, 25° C., pH 7.0
Source text: (§1) As used herein “oxidase activity” is an enzymatic activity (Vmax) of the fructosyl amino acid oxidase to catalyze oxidation of fructosyl amino acid to generate 2-keto-D-glucose and the corresponding amino acid while utilizing oxygen as an electron acceptor. The oxidase activity may be assayed by measuring the amount of generated H2O2 by any methods known in the art, including by way of non-limiting example, reagents for H2O2 detection such as […] (4-aminoantipyrine/N,N-Bis(4-sulfobutyl)-3-methylaniline disodium salt/horseradish peroxidase) or by Pt electrode. As used herein in the context of the relative or quantitative activity, the oxidase activity is specifically defined to be the mole amount of the substrate (fructosyl amino acid) oxidized per unit time measured by the amount of generated H2O2 at 25° C. in 10 mM PPB, pH 7.0, 1.5 mM TODB, 2 U/ml horseradish peroxidase (POD), and 1.5 mM 4-aminoantipyrine (4AA). The formation of quinoneimine dye may be measured spectrophotometrically at 546 nm.
(§2) Escherichia coli BL21 (DE3) cells harboring expression vectors of N1-1 FAOD (SEQ ID NO: 2) mutants were grown in 150 ml of LB medium containing 50 μg/ml kanamycin at 37° C. After reaching an A660 value of 0.6, 0.3 mM IPTG was added and incubated at 25° C. for an additional 5 hours. The cells were collected by centrifugation and washed twice with 0.85% NaCl.aq. Then, the cells were resuspended in 10 mM Potassium Phosphate Buffer (PPB) pH 7.0 and lysed by ultrasonic homogenizer. The lysate was centrifuged at 10,000×g, 4° C. for 10 min, and the supernatant was centrifuged at 50,000 rpm, 4° C. for 60 min, then the supernatant was dialyzed against 10 mM PPB (pH 7.0). The oxidase activity was assayed at 25° C. in 10 mM PPB, pH 7.0, 1.5 mM TODB, 2 U/ml horseradish peroxidase (POD), and 1.5 mM 4-aminoantipyrine (4AA) in the presence of substrates (0.2, 0.5, 0.75, 1, 2, 5 mM f-^αVal […]). The formation of quinoneimine dye was measured spectrophotometrically at 546 nm. The dehydrogenase activity was assayed at 25° C. in 10 mM PPB (pH 7.0), 0.6 mM DCIP, and 6 mM methoxy PMS (mPMS) in the presence of substrates (0.2, 0.5, 1, 2, 5 mM f-^αVal or 5 mM f-^αVal-His).
(§3) Mutations were introduced using site-directed mutagenesis as in Example 1, and BL21 (DE3) cells were transformed with an expression vector containing wild-type or mutant PnFPOX (SEQ ID NO: 1). The cultured cells were resuspended in 10 mM PPB, pH 7.0, and lysed by sonication. The lysate was centrifuged at 10,000 g at 4° C. for 20 min, and the supernatant was centrifuged at 50,000 rpm at 4° C. for 60 min. The oxidase and dehydrogenase activities were measured as in Example 1.
(§4) BL21 (DE3) transformed with pEPN (pET28a-PnFPOX)-N56A was grown aerobically at 37° C. in LB medium (2 l) containing 50 μg kanamycin ml^−1. […]

[2] = target: T1, fructosyl amino acid oxidase from Phaeosphaeria nodorum (PnFPOX, SEQ ID NO: 1) variant N56A; assay: Dehydrogenase activity kinetics (mPMS/DCIP), PnFPOX N56A mutant; format: biochemical; conditions: purified enzyme, 25° C., pH 7.0
Source text: (§5) As used herein, “dehydrogenase activity” is an enzymatic activity (Vmax) of the fructosyl amino acid oxidase to catalyze oxidation of fructosyl amino acid to generate 2-keto-D-glucose and the corresponding amino acid while utilizing an electron mediator other than oxygen as an electron acceptor. The dehydrogenase activity may be assayed by measuring the amount of electrons transferred to the mediator using, for example, one of mPMS/DCIP (1-methoxy-5-methylphenazinium methylsulfate/2,6-dichloroindophenol), cPES (trifluoro-acetate-1-(3-carboxy-propoxy)-5-ethyl-phenanzinium, NA BM31—1144 (N,N-bis-(hydroxyethyl)-3-methoxynitrosoaniline hydrochloride, NA BM31—1008 (N,N-bis-hydroxyethyl-4-nitrosoaniline) and N—N-4-dimethyl-nitrosoaniline.
(§6) As used herein in the context of the relative or quantitative activity, the dehydrogenase activity is specifically defined to be the mole amount of the substrate (fructosyl amino acid) oxidized per unit time measured by the amount of electrons transferred to the mediator at 25° C. in 10 mM PPB (pH 7.0), 0.6 mM DCIP, and 6 mM methoxy PMS (mPMS).
as §2
as §3, with “1. […]” for “1.”

[3] = tested on: CC(C)[C@H](NCC1(O)OC[C@@H](O)[C@@H](O)[C@@H]1O)C(=O)N[C@@H](Cc1c[nH]cn1)C(=O)O; assay: Oxidase activity kinetics (4AA/TODB/POD), PnFPOX wild type; format: biochemical, Phaeosphaeria nodorum; conditions: other: 4AA/TODB/POD, 25° C., pH 7.0
Source text: as §1, §2, §3
(§7) The oxidase and dehydrogenase activities of the N56A mutant FAOD were measured. […]

[4] = tested on: CC(C)[C@H](NCC1(O)OC[C@@H](O)[C@@H](O)[C@@H]1O)C(=O)O; assay: as above; format: biochemical, Phaeosphaeria nodorum; conditions: other: 4AA/TODB/POD, 25° C., pH 7.0
Source text: as §1, §2, §3, §7

[5] = tested on: CC(C)[C@H](NCC1(O)OC[C@@H](O)[C@@H](O)[C@@H]1O)C(=O)O; assay: Dehydrogenase activity kinetics (mPMS/DCIP), PnFPOX wild type; format: biochemical, Phaeosphaeria nodorum; conditions: other: mPMS/DCIP, 25° C., pH 7.0
Source text: As used herein, “dehydrogenase activity” is an enzymatic activity (Vmax) of the fructosyl amino acid oxidase to catalyze oxidation of fructosyl amino acid to generate 2-keto-D-glucose and the corresponding amino acid while utilizing an electron mediator other than oxygen as an electron acceptor. […]
as §6
Escherichia coli BL21 (DE3) cells harboring expression vectors of N1-1 FAOD (SEQ ID NO: 2) mutants were grown in 150 ml of LB medium containing 50 μg/ml kanamycin at 37° C. […] The formation of quinoneimine dye was measured spectrophotometrically at 546 nm. […]
Mutations were introduced using site-directed mutagenesis as in Example 1, and BL21 (DE3) cells were transformed with an expression vector containing wild-type or mutant PnFPOX (SEQ ID NO: 1). […] The oxidase and dehydrogenase activities were measured as in Example 1.
as §7

[6] = tested on: CC(C)[C@H](NCC1(O)OC[C@@H](O)[C@@H](O)[C@@H]1O)C(=O)N[C@@H](Cc1c[nH]cn1)C(=O)O; assay: Oxidase activity kinetics (4AA/TODB/POD), PnFPOX N56A mutant; format: biochemical, Phaeosphaeria nodorum; conditions: other: purified enzyme, 25° C., pH 7.0
Source text: as §1, §2, §3, §4

[7] = tested on: CC(C)[C@H](NCC1(O)OC[C@@H](O)[C@@H](O)[C@@H]1O)C(=O)O; assay: as above; format: biochemical, Phaeosphaeria nodorum; conditions: other: purified enzyme, 25° C., pH 7.0
Source text: as §1, §2, §3, §4

[8] = tested on: CC(C)[C@H](NCC1(O)OC[C@@H](O)[C@@H](O)[C@@H]1O)C(=O)N[C@@H](Cc1c[nH]cn1)C(=O)O; assay: Dehydrogenase activity kinetics (mPMS/DCIP), PnFPOX N56A mutant; format: biochemical, Phaeosphaeria nodorum; conditions: other: purified enzyme, 25° C., pH 7.0
Source text: as §5, §6, §2
as §3, with “1. […]” for “1.”

[9] = tested on: CC(C)[C@H](NCC1(O)OC[C@@H](O)[C@@H](O)[C@@H]1O)C(=O)O; assay: as above; format: biochemical, Phaeosphaeria nodorum; conditions: other: purified enzyme, 25° C., pH 7.0
Source text: as §5, §6, §2
as §3, with “1. […]” for “1.”

[10] = substrate: CC(C)[C@H](NCC1(O)OC[C@@H](O)[C@@H](O)[C@@H]1O)C(=O)O; assay: Oxidase activity kinetics (4AA/TODB/POD), N1-1 FAOD wild type; format: biochemical, Pichia sp. N1-1; conditions: 25° C., pH 7.0
Source text: as §1, §2
(§8) The recombinant FAOD was purified as follows. First, a water-soluble fraction containing the enzyme was prepared from recombinant Escherichia coli. E. coli containing the expression vector was cultured in 7 L LB medium (37° C., in 10 L fermenter, 50 μg/ml ampicillin), then the expression was induced with IPTG (final concentration: 0.3 mM) at about OD660=0.7 and culture temperature was lowered to 30° C. The cells were suspended in 100 mM PPb (pH 7.0) and disrupted four times using a French press. […]

[11] = substrate: CC(C)[C@H](NCC1(O)OC[C@@H](O)[C@@H](O)[C@@H]1O)C(=O)O; assay: Dehydrogenase activity kinetics (mPMS/DCIP), N1-1 FAOD wild type; format: biochemical, Pichia sp. N1-1; conditions: 25° C., pH 7.0
Source text: as §5, §6, §2, §8

[12] = substrate: CC(C)[C@H](NCC1(O)OC[C@@H](O)[C@@H](O)[C@@H]1O)C(=O)O; assay: Oxidase activity kinetics (4AA/TODB/POD), N1-1 FAOD N47A mutant; format: biochemical, Pichia sp. N1-1; conditions: 25° C., pH 7.0
Source text: as §1, §2, §8

[13] = substrate: CC(C)[C@H](NCC1(O)OC[C@@H](O)[C@@H](O)[C@@H]1O)C(=O)O; assay: Dehydrogenase activity kinetics (mPMS/DCIP), N1-1 FAOD N47A mutant; format: biochemical, Pichia sp. N1-1; conditions: 25° C., pH 7.0
Source text: as §5, §6, §2, §8

T1 sequence (Q0UIL6 whole entry N56A): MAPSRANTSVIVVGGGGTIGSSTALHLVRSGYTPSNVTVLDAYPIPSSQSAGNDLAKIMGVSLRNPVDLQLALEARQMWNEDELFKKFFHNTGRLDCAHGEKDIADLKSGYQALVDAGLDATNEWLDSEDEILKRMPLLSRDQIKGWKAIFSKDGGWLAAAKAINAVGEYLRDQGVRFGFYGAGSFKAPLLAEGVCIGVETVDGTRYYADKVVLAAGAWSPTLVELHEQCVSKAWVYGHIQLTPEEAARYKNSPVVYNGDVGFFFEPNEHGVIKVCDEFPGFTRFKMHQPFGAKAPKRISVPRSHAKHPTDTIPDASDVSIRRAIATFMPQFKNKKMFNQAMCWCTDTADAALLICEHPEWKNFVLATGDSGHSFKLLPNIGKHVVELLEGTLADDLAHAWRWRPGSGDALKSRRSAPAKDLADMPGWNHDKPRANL

Molecule: CC(C)[C@H](NCC1(O)OC[C@@H](O)[C@@H](O)[C@@H]1O)C(=O)N[C@@H](Cc1cnc[nH]1)C(=O)O (stereo partly shown) [f-αValHis, fructosyl valyl histidine]
- Vmax [1]: 1.90 U/mg
- Vmax [2]: 3.40 U/mg

Molecule: fructosyl amino acid oxidase from Phaeosphaeria nodorum (PnFPOX), wild type, SEQ ID NO: 1 (Parastagonospora nodorum SN15)
- Km [3]: 200 µM
- Vmax [3]: 2.97 U/mg
- Km [4]: 640 µM
- Vmax [4]: 27.6 U/mg
- Km [5]: 1100 µM
- Vmax [5]: 28.0 U/mg

Molecule: fructosyl amino acid oxidase from Phaeosphaeria nodorum (PnFPOX, SEQ ID NO: 1) variant N56A (Parastagonospora nodorum SN15; N56A)
- Km [6]: 92 µM
- Km [7]: 86 µM
- Km [8]: 74 µM
- Km [9]: 1600 µM

B1: fructosyl amino acid oxidase from Pichia sp. N1-1 (N1-1 FAOD), wild type, SEQ ID NO: 2 (Pichia sp. N1-1) (protein)
chain: MESIIIVGAGTFGLSTALQLARDGYKNIKCFDKFPVPSEIAAGNDSNKIFHYDYVAPLAKPNSKERLSLEALHLWKTDPVYKPYYHPVGFILAASSDAPLLHDKEYYEELQKNGLRNYRYISTPEEFREYLPILKGPLPNWRGYVLDGDNGWLHARDSLKSAYEECKRLGVEFVFGDDGEIVELLNENGKLTGIRARSGAIFSAQKYVLSSGANAVTLLNFQRQLEGKCFTLAHFKVTDEEAKAFKSLPVLFNAEKGFFFEADENNEIKICNEYPGFTHTNESGESIPLYRMEIPLESALEIRQYLKETMPQFADRPFTKTRICWCTDSPDMQLILCTHPEYTNLIVASGDSGNSFKIMPIIGKYVSKVVTKGDKGLDPEDKECWKWRPETWDKRGQVRWGGRYRVADLNEIEEWVSVENPTPHKLE
notes: 427 aa
- Km ([10]; other: crude preparation): 2640 µM
- Vmax ([10]; other: crude preparation): 0.71 U/mg
- Km ([10]; other: purified enzyme): 4800 µM
- Vmax ([10]; other: purified enzyme): 9.3 U/mg
- Km ([11]; other: crude preparation): 3220 µM
- Vmax ([11]; other: crude preparation): 0.60 U/mg
- Km ([11]; other: purified enzyme): 4600 µM
- Vmax ([11]; other: purified enzyme): 9.8 U/mg

B2: fructosyl amino acid oxidase from Pichia sp. N1-1 (N1-1 FAOD, SEQ ID NO: 2) variant N47A (Pichia sp. N1-1; N47A) (protein)
chain: B1 chain with N47A
notes: crude and purified
- Km ([12]; other: crude preparation): 1420 µM
- Vmax ([12]; other: crude preparation): 0.11 U/mg
- Km ([12]; other: purified enzyme): 2200 µM
- Vmax ([12]; other: purified enzyme): 1.4 U/mg
- Km ([13]; other: crude preparation): 9130 µM
- Vmax ([13]; other: crude preparation): 0.82 U/mg
- Km ([13]; other: purified enzyme): 6200 µM
- Vmax ([13]; other: purified enzyme): 6.0 U/mg
